Molecular target: human CCR8 (HA-tagged) on stably transfected HEK293 cells (human), P51685
Assay: flow cytometry on cells
Conditions: remark: other sources report otherwise

Sequence of human CCR8 (HA-tagged) on stably transfected HEK293 cells (human), P51685 (P51685 whole entry): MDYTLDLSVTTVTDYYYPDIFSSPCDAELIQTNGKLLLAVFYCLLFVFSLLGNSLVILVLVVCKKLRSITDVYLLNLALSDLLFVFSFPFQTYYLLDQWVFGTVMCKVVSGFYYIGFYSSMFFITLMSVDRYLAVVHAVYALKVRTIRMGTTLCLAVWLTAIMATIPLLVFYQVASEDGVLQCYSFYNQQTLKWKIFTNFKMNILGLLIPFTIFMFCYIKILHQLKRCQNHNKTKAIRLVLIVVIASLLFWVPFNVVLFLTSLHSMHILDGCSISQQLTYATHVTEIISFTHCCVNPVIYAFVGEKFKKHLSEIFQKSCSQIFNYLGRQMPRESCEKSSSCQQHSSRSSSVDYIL

IC50: 4.1 nM
B1: unlabeled human recombinant CCL18, P55774 21-89 (ligand)
chain: AQVGTNKELCCLVYTSWQIPQKFIVDYSETSPQCPKPGVILLTKRGRQICADPNKKWVQKYISDLKLNA

Source: paper PMC7616283
